Experimental data as given in patent publication US5336488A, “Method of treating or preventing mastitis in animals with involuting mammary glands by administering recombinant cytokines” (American Cyanamid Company, priority 1992, dated 1994).

What was measured:
Bovine Mammary Gland = assay: Dose response of bovine mammary gland to intramammary infusion: somatic cell influx into milk; assay type: in vivo, bovine (Holstein dairy cattle); details: for infiltration of somatic cells into the milk: lactating cattle, FIG. 1; for minimal effective dose: somatic cell influx
Protocol: FIG. 1: Dose Response of Bovine Mammary Gland to Intramammary Infusion of Recombinant Cytokines
Five fold serial dilutions of r-BolL-1 (recombinant bovine interleukin-1) from 312.5 μg to […]: r-BoIL-2 (recombinant bovine interleukin-2) from 40 mg to 0.1 mg: and r-BoGM-CSF (recombinant bovine granulocyte macrophage colony stimulating factor) from 0.2 mg to […] are administered at time 0 into 3-4 mammary glands from normal lactating Holstein dairy cattle. A total of 54 mammary gland quarters, 3-4 per group, are infused through the teat canal with various concentrations of recombinant bovine cytokines after the morning milking. Milk samples are collected and the number of viable somatic cells counted on a Coulter® ZM with a C256 Channelyzer. The data is expressed as the somatic cell count per ml of milk
These doses are guidelines for quantitative induction of somatic cells, but significant beneficial qualitative changes can be induced with lower doses. The specific biological activity for r-BoIL-1 as a chemoattractant is approximately 10,000 fold greater than r-BoIL-2, although the in vitro specific bioactivities are equivalent. Active IL-2 inhibition or decreased biostability in milk might explain this discrepancy. The peak number of cells after r-BoIL-1 infusion with a maximal tolerable dose is 4-5 fold greater than r-BoIL-2. The kinetics of PMN migration into the mammary gland is such that migration occurs 8- 24 hours sooner for r-BoIL-1 infusions […] the BolL-2 infusion depending upon the dose. The dominant cell type after r-BoIL-1 or r-BoIL-2 infusion is PMNs.

[1] = system: PMNs from mammary glands early in involution; assay: Phagocytic activity of cells from dry cow secretions after cytokine treatment; assay type: in vivo, bovine (Holstein dairy cattle); details: treatment with IL-2
Protocol: FIG. 5: Phagocytic Ability of PMNs After Cytokine Administration from Mammary Glands Early in Involution
A total of 4 mammary glands from 2 Holstein dairy cattle just entering the dry period are used. All quarters had been infected with S. aureaus for 4-6 weeks prior to treatment. Two of the quarters are treated with Cefa-Dri® and 2 quarters are treated with Cefa-Dri®+1 mg bovine IL-2 by intramammary infusion immediately following the last milking prior to drying-off. Dry cow secretions are then collected at day 3 and day 6 of the dry-off period and the number of viable somatic cells counted on a Coulter® with a C256 Channelyzer. The total percentage of phagocytosis by PMNs is quantitatively measured by flow cytometry by measuring the percentage of cells ingesting 2μ fluorescent beads.
Somatic cells are isolated from mammary gland lavages on days 3 and 6 after treatment with Cefa-Dri® plu6 IL-2 or Cefa-Dri® alone. The cells are incubated with fluorescent latex micropheres and analyzed on the flow cytometer for their ability to phagocytize the beads.

[2] = Milk production in lactating glands after intramammary infusion or intramuscular injection; assay type: in vivo, bovine (lactating dairy cows); details: for decrease of milk production: FIG. 3A
Protocol: FIGS. 3(A-I): Milk Production After Intramammary Infusion or Intramuscular Injection of r-BoIL-2 into Lactating Dairy Cows
Mean milk production in kilograms +/- Standard Error is recorded for 8 lactating dairy cows after intramammary infusion of r-BoIL-2 or no treatment. Data is shown as a percentage of the average milk production (Standard Deviation) compared to the first five days prior to Treatment (mean for 100% production level ). Production after r-BoIL-2 intramammary infusion with total dosing amounting to 4.5 mg or 13.5 mg in quarters infected with S. aureaus is compared to infected, untreated cows for a 6 day time period, panel A. Similarly, production is also followed in 7 lactating injections of r-BoIL-2 at 2.5 μg/kg/day for 5 days and compared to 3 normal PBS injected controls, panel B. All cows are in mid to late stages of their second or third lactation at the time of r-BoIL-2 therapy. All effects on milk production are transient, returning to pre-treatment levels within 96 hours after cessation of treatment.
In vivo measurement of daily milk production is also monitored for both intramammary infusions and intramuscular injection. Cows are milked morning and evening and the milk weighed and recorded in total kilograms per day. The total dose of IL-2 administered per cow ranges from 2 to 96 mg. Single or multiple intramammary infusions of IL-2 have variable effects on individual animal's milk production based upon the total dose of r-BoIL-2 administered per day, FIG. 3 A (INTRAMAMMARY). Production decreases as much as 30-40% by the third infusion in the high dose animals (13.5 mg), whereas only a 12% decrease is observed at the 4.5 mg dose (not statistically different from time 0 production or control animals). […] This induction would be of great significance to assist in the morphological changes required during early lactation and serves to accelerate the protective mechanisms.

[3] = Milk production in lactations immediately following dry cow therapy; assay type: in vivo, bovine (dairy cows); details: FIG. 6
Protocol: FIG. 6: Milk Production Early in Lactation Before and After Intramammary Infusion of r-BoIL-2 as a Dry Cow Therapy
Mean milk production in kilograms; (S.D.) is shown for 4 cows for the first six days after the initiation of lactation for the lactation immediately prior to treatment and immediately following treatment. Production after r-BoIL-2 treatment or for the same time period for the lactation prior to treatment is monitored. Total dose of r-BoIL-2 received by each treated cow is 2 mg. Three cows are completing their second lactation and one is completing its third lactation at the time of r-BoIL-2 therapy. Post-treatment production from initiation of the third or fourth lactation is compared to the production for the first 6 days after initiation of the second or third lactation (pre-treatment) respectively of the same animals .
The effects of r-BoIL-2 on possible milk production after dry-cow therapy are also evaluated. Milk production for three dairy cows for the first five days of the lactation cycle (second or third lactation) prior to r-BoIL-2 treatment is compared to the milk production for the first five days of the lactation cycle (third or fourth lactation) immediately following r-BoIL-2 treatment, FIG. 6.

B1: recombinant bovine interleukin-1 (protein, UniProt P09428 114-266, looked up)
Interleukin-1 beta: APVQSIKCKLQDREQKSLVLASPCVLKALHLLSQEMNREVVFCMSFVQGEERDNKIPVALGIKDKNLYLSCVKKGDTPTLQLEEVDPKVYPKRNMEKRFVFYKTEIKNTVEFESVLYPNWYISTSQIEERPVFLGHFRGGQDITDFRMETLSP
notes: recombinant bovine interleukin-1, obtained from IMMUNEX Corp. Seattle, WA
Which “PMN migration into the mammary gland occurs sooner than with BoIL-2 infusion” value (Bovine Mammary Gland; depending upon the dose) does the source give for B1 here?
The value was 8 to 24 h.

What about the “dominant cell type after infusion” value (Bovine Mammary Gland; intramammary infusion) of the same molecule?
Its value is “PMNs”.

And the maximal tolerable dose (Bovine Mammary Gland; intramammary infusion)?
Its maximal tolerable dose is 1000 mg.

What about the “infiltration of somatic cells into the milk” value (Bovine Mammary Gland; intramammary infusion) of the same molecule?
Its value is “induce an infiltration of somatic cells into the milk in a dose related manner”.

What about the “specific biological activity as a chemoattractant, greater than r-BoIL-2” value (Bovine Mammary Gland; intramammary infusion, relative to r-BoIL-2) of the same molecule?
The value was “approximately 10,000 fold”.

What about the minimal effective dose (Bovine Mammary Gland; intramammary infusion) of the same molecule?
The minimal effective dose was 0.5 mg.

What about the “peak number of cells after infusion, greater than r-BoIL-2” value (Bovine Mammary Gland; maximal tolerable dose, relative to r-BoIL-2) of the same molecule?
The value was 4-5 fold.

B2: recombinant bovine interleukin-2 (protein, UniProt P05016 21-155, looked up)
Interleukin-2: APTSSSTGNTMKEVKSLLLDLQLLLEKVKNPENLKLSRMHTFDFYVPKVNATELKHLKCLLEELKLLEEVLNLAPSKNLNPREIKDSMDNIKRIVLELQGSETRFTCEYDDATVNAVEFLNKWITFCQSIYSTMT
notes: recombinant bovine interleukin-2, obtained from IMMUNEX Corp. Seattle, WA
Which “phagocytic activity of cells of the dry gland” value [1] does the source give for B2 here?
Its value is “seems to enhance the phagocytic activity of cells of the dry gland”.

What about the “dominant cell type after infusion” value (Bovine Mammary Gland; intramammary infusion) of the same molecule?
The value was “PMNs”.

And the maximal tolerable dose (Bovine Mammary Gland; intramammary infusion)?
The maximal tolerable dose was 30 mg.

What about the “infiltration of somatic cells into the milk” value (Bovine Mammary Gland; intramammary infusion) of the same molecule?
Its value is “induce an infiltration of somatic cells into the milk in a dose related manner”.

And the minimal effective dose (Bovine Mammary Gland; intramammary infusion)?
Its minimal effective dose is 0.5 mg.

And the “time to return of milk production to pre-treatment levels after cessation of treatment” value ([2]; intramammary or intramuscular r-BoIL-2)?
The value was no more than 96 h.

What about the “decrease of milk production” value ([2]; intramammary, 4.5 mg, not statistically different from time 0 or control) of the same molecule?
Its value is 12%.

What about the “decrease of milk production” value ([2]; intramammary, 13.5 mg, by the third infusion) of the same molecule?
The value was 30-40%.

And the “effect on milk production” value ([2]; intramammary, total dose less than 4.5 mg)?
The value was “No statistically significant effect on milk production”.

What about the “improvement in milk production at the following lactation” value ([3]; first five days of lactation vs prior lactation) of the same molecule?
The value was 80%.

What about the “inhibition of milk production at the following lactation” value ([3]; first five days of lactation) of the same molecule?
Its value is “No inhibition of milk production”.
